Source: patent publication US8022188B2, “Immunosuppressant binding antibodies and methods of obtaining and using same” (Abbott Laboratories, priority 2006, dated 2011)
Read-outs that look alike come from different tables or passages of the source.

Key:
[1] = cited from earlier work
[2] = Kinetic Exclusion Assay (KinExA) affinity determination of IgG; format: binding; details: for Fold Improvement: KD, relative to 1-60-46 WT IgG
Procedure: The equilibrium dissociation constants for both the 1-60-46 AM2 IgG and the 1-60-46 WT mAb IgG produced from the murine hybridoma cell line 1-60-46 were determined using Kinetic Exclusion Assay (KinExA®), available from Sapidyne Instruments (Boise, Id.) (See, Darling and Brault, ASSAY and Drug Development Technologies, 2(6):647-657 (2004)). A constant amount of IgG antibody (AM2 or WT) was incubated with various concentrations (10^−8 M to 10^−13 M) of tacrolimus drug (commercially available from Astellas Pharma, Inc., Tokyo, Japan) and allowed to come to equilibrium (2 hours to 14 hours) before sampling. The amount of free binding sites was determined by injecting the antibody:tacrolimus reaction mixture over bt-tacro immobilized to a solid-phase. Tacrolimus IgG antibody bound to the bt-tacro immobilized to the solid-phase was subsequently detected by injecting goat anti-mouse polyclonal antibody conjugates (GAM) to Cy5 (GAM-Cy5) fluorescent dye. The degree of GAM-Cy5 bound was proportional to the amount of tacrolimus IgG bound to the immobilized bt-tacro and was detected after excitation with the appropriate wavelength. The KD was determined by analyzing the amount of free binding sites versus the amount of antigen present in the reaction sample using software provided by the manufacturer (Sapidyne Instruments; Boise, Id.).

Row | Molecule | in vivo potency greater than cyclosporine CsA [1] | Fold Improvement ([2]; 10% MeOH) [x] | Fold Improvement ([2]; no MeOH) [x] | improvement in KD relative to the 1-60-46 WT IgG ([2]; physiological diluent) [fold] | Kd ([2]; physiological diluent (PBS pH 7.4, 1% BSA), read-out: KD (no MeOH)) [pM] | improvement in KD relative to the 1-60-46 WT IgG ([2]; selection diluent) [fold] | Kd ([2]; selection diluent (PBS, 1% BSA, 10% methanol), read-out: Kd (10% MeOH)) [pM]
1 | C=CC[C@@H]1/C=C(\C)C[C@H](C)C[C@H](OC)[C@H]2O[C@@](O)(C(=O)C(=O)N3CCCC[C@H]3C(=O)O[C@H](/C(C)=C/[C@@H]3CC[C@@H](O)[C@H](OC)C3)[C@H](C)[C@@H](O)CC1=O)[C@H](C)C[C@@H]2OC [Tacrolimus] | 50-100 times | – | – | – | – | – | –
2 | 1-60-46 AM2 IgG: murine IgG2a/κ containing the H2-1A, L1-1B and L3-A mutations; SEQ ID NO:40 and 42 (antibody, Mouse) heavy: EVELVESGGDLVKPGGSLKLSCAASGFTFSSYGMSWVRQTPDKRLEWVATISSGGAWTFYPDSVKGRFTISRDNAKNTLSLQMSSLKSADTAMYYCSRQTDGYSWFPYWGQGTLVTVSASAKTTAPSVYPLAPVCGDTTGSSVTLGCLVKGYFPEPVTLTWNSGSLSSGVHTFPAVLQSDLYTLSSSVTVTSSTWPSQSITCNVAHPASSTKVDKKIEPRGPTIKPCPPCKCPAPNLLGGPSVFIFPPKIKDVLMISLSPIVTCVVVDVSEDDPDVQISWFVNNVEVHTAQTQTHREDYNSTLRVVSALPIQHQDWMSGKEFKCKVNNKDLPAPIERTISKPKGSVRAPQVYVLPPPEEEMTKKQVTLTCMVTDFMPEDIYVEWTNNGKTELNYKNTEPVLDSDGSYFMYSKLRVEKKNWVERNSYSCSVVHEGLHNHHTTKSFSRTPGK light: DVLMTQTPLSLPVSLGDQASISCKSSQGLVHSTGNTFLEWFLQKPGQSPKLLIYKISNRFSGVPDRFSGSGSGTDFTLKISRVESEDLGVYYCFQGSHAPLTFGAGTKLELKRASADAAPTVSIFPPSSEQLTSGGASVVCFLNNFYPKDINVKWKIDGSERQNGVLNSWTDQDSKDSTYSMSSTLTLTKDEYERHNSYTCEATHKTSTSPIVKSFNRNEC | – | 12 | 16 | 16 | 1.2 | 12 | 13
